The supplement of paper PMC9170038

Tested on: MS2 coat protein
Assay: apparent KD of MS2 coat protein; designed switch direction (-1 OFF switch, 1 ON switch): 1; higher = weaker reporter binding
Outline: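 Three titration conditions were used: no input, 200 uM small-molecule ligand, and an oligonucleotide input. In each, SNAP-549-labelled MS2 coat protein was raised from 0.7 or 1.5 nM, doubling, to 3 µM over designed RNA switches transcribed on Illumina chips by stalled E. coli RNA polymerase. Curve fits of normalised cluster fluorescence gave values whose per-design median over clusters is the apparent KD.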

[1] = input ligand: microRNA oligo, concentration not stated
[2] = Eterna round: R95, input ligand: FMN 200 uM
[3] = Eterna round: R95, input ligand: microRNA oligo, concentration not stated
[4] = Eterna round: R95, input ligand: none

Sequence | apparent KD of MS2 coat protein (input ligand: FMN 200 uM) | apparent KD of MS2 coat protein [1] | apparent KD of MS2 coat protein (input ligand: none) | apparent KD of MS2 coat protein [2] | apparent KD of MS2 coat protein [3] | apparent KD of MS2 coat protein [4]
UGGCUCAGACGAGGAUAUGGUCAUGGCGCUUCGGCGCAUACAUGAGGAUCACCCAUGUAGGGUGAUCAGAAGGUGUCUGAGCCA [SSNG2/9-B2] (Eterna round: R96, puzzle: Same State NG 2) | 210 nM | 827 nM | 1100 nM |  |  | 
UGGCUCAGAGCAGGAUAUAUGUCUCGAGCUUCGGCUCGAGACAUGAGGAUCACCCAUGUAAUAACAUAGAAGGGCUCUGAGCCA [SSNG2/1-B2] (Eterna round: R96, puzzle: Same State NG 2) | 16.3 nM | 41.7 nM | 74.7 nM |  |  | 
UGGCUCAGAGCAGGAUAUAUGUGGUCACAUGAGGAUCACCCAUGUCUCGAGCUUCGGCUCGAGGCAUAGAAGGGCUCUGAGCCA [SSNG2/5-B2] (Eterna round: R96, puzzle: Same State NG 2) | 550 nM | 48 nM | 58.1 nM |  |  | 
UGGCUGGUGCUAGGAUAUACAUGAGGAAUCCUCGUAGAAGGAUCACGACAUGAGGAUCACCCAUGUAGCCGUCCGUAGACGGCU [salish99_SSNG1_r04_006] (Eterna round: R96, puzzle: Same State NG 1) | 1930 nM | 190 nM | 312 nM |  |  | 
UGGCUGGUGCUAGGAUAUGCAUGAGGCCUCCUCGUAGAAGGAGCACGACAUGAGGAUCACCCAUGUGGCCGUCCGUGGACGGCU [salish99_SSNG1_r04_014] (Eterna round: R96, puzzle: Same State NG 1) | 45.4 nM | 44.9 nM | 56.1 nM |  |  | 
UGUCCAGCCUGAGCUGGACAAAAGCAUGUACAUGAGGAUCACCCAUGUUCAUGUACAAGCUUUUUGCUCGUCUUAAA [salish99_208a_r3_030] (puzzle: Sensor for hsa-mir-208a) |  |  |  | 325 nM | 14.7 nM | 370 nM
UGUCCAGCCUGAGCUGGACAAAAGCAUGUACAUGAGGAUCACCCAUGUUCAUGUACAAGCUUUUUGCUCGUCUUAUA [salish99_208a_r3_044] (puzzle: Sensor for hsa-mir-208a) |  |  |  | 404 nM | 13.8 nM | 415 nM
UGUUGAAACUGAGGAUAUGGCGUGUGACGAAUGCCAGAAGGUAGUAGGAGCAACAUGAGGAUCACCCAUGUCCGGCGCAGACCC [Eternabot solution 16] (Eterna round: R96, puzzle: Same State NG 1) | 85.6 nM | 61.3 nM | 71.3 nM |  |  | 
UGUUGGAAGUGAGGAUAUGGGAAAGGAAGUGUACCAGAAGGCACAUCUAGCCGGAACAUGAGGAUCACCCAUGUACCACACUAC [PowerStrip SSNG 1.15] (Eterna round: R96, puzzle: Same State NG 1) | 128 nM | 24.6 nM | 30.7 nM |  |  | 
UGUUGUAUUACAGGAUAUCUAGUAGUUUUAUUUAGAGAAGGGUAUUCACAUGAGGAUCACCCAUGUAUAUACGAGGAAGUUGUG [JMF's solution 36] (Eterna round: R96, puzzle: Same State NG 1) |  | 29.7 nM |  |  |  | 
UGUUGUAUUACAGGAUAUCUAGUAUUUUAAUUUAGAGAAGGGUAUUCACAUGAGGAUCACCCAUGUAUAUACGAGGAAGUUGUG [JMF's solution 43] (Eterna round: R96, puzzle: Same State NG 1) |  | 38.6 nM |  |  |  | 
UUAAAACAUGAGGAUCACCCAUGUCAACAAAGUCGAGGAUAUGGGCAAAUAAAAUAAGAACCAGAAGGCGAAUAAU [salish99_SS1_r3_006] (puzzle: Same State 1) |  |  |  | 38.2 nM | 434 nM | 409 nM
UUAAUGAAGUAAGGAUAUACAUGAGGAUCACUCGUAGAAGGUACUAUACAUGAGGAUCACCCAUGUGCCGGUCAGAAGACUGGA [Mat - Same State NG 1 - JL mod - D5] (Eterna round: R96, puzzle: Same State NG 1) | 755 nM | 534 nM | 723 nM |  |  | 
UUAAUGAUGAUAGGAUAUACAUGAGGAAUCCUCGUAGAAGGAUCAUGACAUGAGGAUCACCCAUGUAACGCUCCGUAGAGCGUA [JL SSNG1 1.16] (Eterna round: R96, puzzle: Same State NG 1) | 220 nM | 94 nM | 250 nM |  |  | 
UUAAUGAUGAUAGGAUAUACAUGAGGAAUUCUCGUAGAAGGAUCAUGACAUGAGGAUCACCCAUGUAACGCUCCGUAGAGCGUA [JL SSNG1 1.15] (Eterna round: R96, puzzle: Same State NG 1) | 572 nM | 385 nM | 1060 nM |  |  | 
UUAAUGAUGUAAGGAUAUACAUGAGGAUUUCUCGUAGAAGGUACAGGACAUGAGGAUCACCCAUGUGUCGCUCAGAAGAGCGUA [Mat - Same State NG 1 - JL mod - D17] (Eterna round: R96, puzzle: Same State NG 1) | 509 nM | 505 nM | 636 nM |  |  | 
UUAAUUAAUUAAUUAUACAUGAGGAUCACCCAUGUAAGUGAUCAGGAUAUCAGCUCGUUUAGAGCUGAGAAGGGAUCCAUGUAA [SSNG3/14-A3] (Eterna round: R96, puzzle: Same State NG 3) | 85.7 nM | 135 nM | 150 nM |  |  | 
UUAGCACAUGAGGAUCACCCAUGUACUAUACUCAUAGGAUAUACAAAGUCUUAAGACGUGGUAGAAGGGUGAGGAA [Zaateddi] (puzzle: Same State 1) |  |  |  | 101 nM | 106 nM | 128 nM
UUAUAACAUGAGGAUCACCCAUGUCAACAAAGUCGAGGAUAUGGGCAAUUAUUAUAAGAACCAGAAGGCGAAUAUU [Mat - Same State 1 - Mod of UCT - D32] (puzzle: Same State 1) |  |  |  | 35.5 nM | 342 nM | 230 nM
UUAUACUAGAGAGGAUAUGCAGAGGAUCACCCUGCAGAAGGCUCAUUAGAGAGGAUAUGCAGAGGAUCACCCUGCAGAAGGCUC [pwkr ssNG DX.21] (Eterna round: R96, puzzle: Same State NG 1) | 10.7 nM | 22.2 nM | 20.1 nM |  |  | 
UUCACCUUUUUUUACAUGAGGAUCACCCAUGUUUACCCUACGUAGGAUAUCGAUGAAUGAUUGUACGAGAAGGACGUAGUAAGU [JR_SSND3_Sub057] (Eterna round: R96, puzzle: Same State NG 3) | 19.1 nM | 30.5 nM | 36.1 nM |  |  | 
UUCCCAGCGGGAGGAUAUGGUGCCUUGUUGGUGCUAGAAGGUCCAACAUGAGGAUCACCCAUGUGGGAGUGGUCUAAUGACCUC [SS NG10LRO08] (Eterna round: R96, puzzle: Same State NG 1) | 301 nM | 181 nM | 347 nM |  |  | 
UUCUCACUGGUAGGAUAUGUAGGAUAUGUACAUGAGGAUCACCCAUGUCAGUUAAUGACAGAAGGAUAGAAGGACCACAUCUCU [pwkr ssNG2 2FMN 1F5s.1] (Eterna round: R96, puzzle: Same State NG 2) | 198 nM | 139 nM | 146 nM |  |  | 
UUGAAGAACAUAGGAUAUUGAAUACAUAUGUUUAACAUGAGGAUCACCCAUGUGGGUUGCGGUAUCGAGAAGGAUGAAUAAAAG [Mat - Same State NG 2 - JL mod - D15] (Eterna round: R96, puzzle: Same State NG 2) | 328 nM | 259 nM | 256 nM |  |  | 
UUGAAGAAUUAAGGAUAUUGAAUACAUAUGUUUAACAUGAGGAUCACCCAUGUGGGUUGCGGUGUCGAGAAGGUAAAAUACUAG [Mat - same State NG 2 - JL mod - D97] (Eterna round: R96, puzzle: Same State NG 2) | 236 nM | 278 nM | 270 nM |  |  | 
UUGCGGGCUUGAGGAUAUUGAGUACAUAUGUUUAACAUGAGGAUCACCCAUGUGGGUUGCGGUAUCGAGAAGGUAACUUACUAC [salish99_SSNG2_r04_807] (Eterna round: R96, puzzle: Same State NG 2) | 110 nM | 70.4 nM | 97.2 nM |  |  | 
UUGCGGGCUUGAGGAUAUUGAGUACAUAUGUUUAACAUGAGGAUCACCCAUGUGGGUUGCGGUAUCGAGAAGGUAGCUUCCUGC [salish99_SSNG2_r04_812] (Eterna round: R96, puzzle: Same State NG 2) | 76.3 nM | 83.6 nM | 79.1 nM |  |  | 
